This note sets out measurements from patent US20260216244A1 (published 2026).

In the experiment the target is T1, EGFR L858R peptide on HLA-A*03:01 (human).
T1 peptide: KITDFGRAK
As to the kind of experiment: multimer staining.

B1: TCR3 (TCR, V domains shown)
Valpha: ENVEQHPSTLSVQEGDSAVIKCTYSDSASNYFPWYKQELGKRPQLIIDIRSNVGEKKDQRIAVTLNKTAKHFSLHITETQPEDSAVYFCAADMRFGAGTRLTVKP
Vbeta: GVTQTPKFRILKIGQSMTLQCTQDMNHNYMYWYRQDPGMGLKLIYYSVGAGITDKGEVPNGYNVSRSTTEDFPLRLELAAPSQTSVYFCASSYSRDSIREQYFGPGTRLTVT
Consider B1, for which the binding result is “recognises”.

B2: TCR4 (TCR, V domains shown)
Valpha: QKEVEQNSGPLSVPEGAIASLNCTYSDRGSQSFFWYRQYSGKSPELIMSIYSNGDKEDGRFTAQLNKASQYVSLLIRDSQPSDSATYLCAVSATGFQKLVFGTGTRLLVSP
Vbeta: QVTQNPRYLITVTGKKLTVTCSQNMNHEYMSWYRQDPGLGLRQIYYSMNVEVTDKGDVPEGYKVSRKEKRNFPLILESPSPNQTSLYFCASTADRGGNEQFFGPGTRLTVL
For B2, the binding result was “recognises”.
